Results on 1 molecule are retold here after paper PMC8967877 (2022).

Holding throughout (assay): FP
One test concerns the target P101L PNKP (human) (human, UniProt Q96T60-1 1-521, P101L).
Test [1] addresses Polynucleotide Kinase-Phosphatase (PNKP), human, wild-type (human, UniProt Q96T60-1 1-521).
In another test the target is wild-type murine PNKP (murine, UniProt Q9JLV6 1-522).

By Kd is commonly meant the equilibrium constant for the complex coming apart. The low end stands for a tighter complex, the high end for a looser complex.

Square brackets hold non-standard residues; d marks the D form. Ends that are not written are not given here. pT = C[C@@H](OP(=O)(O)O)[C@H](N)C(=O)O A value given as a limit tells only on which side of the number the result lay.

Chain of wild-type murine PNKP (Q9JLV6 whole entry): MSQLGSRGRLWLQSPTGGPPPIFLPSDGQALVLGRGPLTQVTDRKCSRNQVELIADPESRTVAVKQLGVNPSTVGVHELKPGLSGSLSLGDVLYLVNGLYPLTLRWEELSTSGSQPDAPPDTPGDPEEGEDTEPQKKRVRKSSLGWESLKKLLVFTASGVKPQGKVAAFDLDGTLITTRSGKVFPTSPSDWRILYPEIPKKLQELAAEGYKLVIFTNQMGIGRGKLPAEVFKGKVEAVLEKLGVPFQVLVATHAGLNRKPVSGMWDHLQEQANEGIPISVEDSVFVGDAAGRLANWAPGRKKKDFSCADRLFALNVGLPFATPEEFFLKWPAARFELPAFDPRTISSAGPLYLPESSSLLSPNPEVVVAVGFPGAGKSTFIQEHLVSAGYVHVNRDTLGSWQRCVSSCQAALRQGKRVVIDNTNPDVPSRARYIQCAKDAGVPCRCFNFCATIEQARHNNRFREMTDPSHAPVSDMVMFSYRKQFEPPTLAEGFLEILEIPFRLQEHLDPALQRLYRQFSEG

Turning to GGYDES[pT]DEESKK (also: fluorescent dye label, position not given here) [fluorescent-dye labeled XRCC4-based phosphopeptide (GGYDES-pT-DEESKK)], the Kd in the test with P101L PNKP (human) was more than 21000 nM; in test [1], 1080 nM; in the test with wild-type murine PNKP, 760 nM.
